In the Human Domainome abundance scans (Beltran et al. 2025):
± gives the uncertainty stated by the source.

B1: Intersectin-1, residues 909 to 971; numbered along this chain, Q15811 (parent)
chain: QGEKVEGLQAQALYPWRAKKDNHLNFNKNDVITVLEQQDMWWFGEVQGQKGWFPKSYVKLISG

Variants of: B1
Experiment: abundance fitness (aPCA) (normalised: wild type 0, dead -1); higher = more abundant; growth selection in yeast, the domain comes from the species named
Settings: Homo sapiens

Variant	abundance fitness
QGEKVEGLQAQALYPWRAKKDNHLNFNKNDVITVLEQQDMWWFGEVPGQKGWFPKSYVKLISG [Q47P]	-0.293 ± 0.19
QGEKVEGLQAQALYPWRAKKDNHLNFNKNDVITVLEQQDMWWFGEVNGQKGWFPKSYVKLISG [Q47N]	-0.084 ± 0.34
QGEKVEGLQAQALYPWRAKKDNHLNFNKNDVITVLEQQDMWWFGEVFGQKGWFPKSYVKLISG [Q47F]	0.133 ± 0.2
QGEKVEGLQAQALYPWRAKKDNHLNFNKNDVITVLEQQDMWWFGEVGGQKGWFPKSYVKLISG [Q47G]	-0.009 ± 0.073
QGEKVEGLQAQALYPWRAKKDNHLNFNKNDVITVLEQQDMWWFGEVWGQKGWFPKSYVKLISG [Q47W]	-0.125 ± 0.17
QGEKVEGLQAQALYPWRAKKDNHLNFNKNDVITVLEQQDMWWFGEVSGQKGWFPKSYVKLISG [Q47S]	-0.167 ± 0.1
QGEKVEGLQAQALYPWRAKKDNHLNFNKNDVITVLEQQDMWWFGEVYGQKGWFPKSYVKLISG [Q47Y]	-0.113 ± 0.31
QGEKVEGLQAQALYPWRAKKDNHLNFNKNDVITVLEQQDMWWFGEVAGQKGWFPKSYVKLISG [Q47A]	0.009 ± 0.084
QGEKVEGLQAQALYPWRAKKDNHLNFNKNDVITVLEQQDMWWFGEVCGQKGWFPKSYVKLISG [Q47C]	-0.332 ± 0.14
QGEKVEGLQAQALYPWRAKKDNHLNFNKNDVITVLEQQDMWWFGEVVGQKGWFPKSYVKLISG [Q47V]	-0.097 ± 0.076
QGEKVEGLQAQALYPWRAKKDNHLNFNKNDVITVLEQQDMWWFGSVQGQKGWFPKSYVKLISG [E45S]	-0.039 ± 0.14
QGEKVEGLQAQALYPWRAKKDNHLNFNKNDVITVLEQQDMWWFGHVQGQKGWFPKSYVKLISG [E45H]	0.089 ± 0.21
QGEKVEGLQAQALYPWRAKKDNHLNFNKNDVITVLEQQDMWWFGVVQGQKGWFPKSYVKLISG [E45V]	-0.013 ± 0.1
QGEKVEGLQAQALYPWRAKKDNHLNFNKNDVITVLEQQDMWWFGLVQGQKGWFPKSYVKLISG [E45L]	-0.076 ± 0.096
QGEKVEGLQAQALYPWRAKKDNHLNFNKNDVITVLEQQDMWWFGFVQGQKGWFPKSYVKLISG [E45F]	-0.055 ± 0.3
QGEKVEGLQAQALYPWRAKKDNHLNFNKNDVITVLEQQDMWWFGMVQGQKGWFPKSYVKLISG [E45M]	-0.18 ± 0.17
QGEKVEGLQAQALYPWRAKKDNHLNFNKNDVITVLEQQDMWWFGWVQGQKGWFPKSYVKLISG [E45W]	-0.274 ± 0.15
QGEKVEGLQAQALYPWRAKKDNHLNFNKNDVITVLEQQDMWWFGTVQGQKGWFPKSYVKLISG [E45T]	0.073 ± 0.15
QGEKVEGLQAQALYPWRAKKDNHLNFNKNDVITVLEQQDMWWFGQVQGQKGWFPKSYVKLISG [E45Q]	0.067 ± 0.16
QGEKVEGLQAQALYPWRAKKDNHLNFNKNDVITVLEQQDMWWFGKVQGQKGWFPKSYVKLISG [E45K]	-0.222 ± 0.21
QGEKVEGLQAQALYPWRAKKDNHLNFNKNDVITVLEQQDMWWFGNVQGQKGWFPKSYVKLISG [E45N]	-0.356 ± 0.3
QGEKVEGLQAQALYPWRAKKDNHLNFNKNDVITVLEQQDMWWFGRVQGQKGWFPKSYVKLISG [E45R]	-0.034 ± 0.12

Variant	abundance fitness
QGEKVEGLQAQALYPWRAKKDNHLNFNKNDVITVLEQQDMWWFGYVQGQKGWFPKSYVKLISG [E45Y]	0.003 ± 0.26
QGEKVEGLQAQALYPWRAKKDNHLNFNKNDVITVLEQQDMWWFGGVQGQKGWFPKSYVKLISG [E45G]	-0.263 ± 0.11
QGEKVEGLQAQALYPWRAKKDNHLNFNKNDVITVLEQQDMWWFGIVQGQKGWFPKSYVKLISG [E45I]	-0.192 ± 0.16
QGEKVEGLQAQALYPWRAKKDNHLNFNKNDVITVLEQQDMWWFGEVQGQCGWFPKSYVKLISG [K50C]	-0.113 ± 0.17
QGEKVEGLQAQALYPWRAKKDNHLNFNKNDVITVLEQQDMWWFGEVQGQEGWFPKSYVKLISG [K50E]	-0.052 ± 0.12
QGEKVEGLQAQALYPWRAKKDNHLNFNKNDVITVLEQQDMWWFGEVQGQDGWFPKSYVKLISG [K50D]	-0.256 ± 0.2
QGEKVEGLQAQALYPWRAKKDNHLNFNKNDVITVLEQQDMWWFGEVQGQAGWFPKSYVKLISG [K50A]	-0.183 ± 0.1
QGEKVEGLQAQALYPWRAKKDNHLNFNKNDVITVLEQQDMWWFGEVQGQFGWFPKSYVKLISG [K50F]	-0.208 ± 0.23
QGEKVEGLQAQALYPWRAKKDNHLNFNKNDVITVLEQQDMWWFGEVQGEKGWFPKSYVKLISG [Q49E]	0.222 ± 0.29
QGEKVEGLQAQALYPWRAKKDNHLNFNKNDVITVLEQQDMWWFGEVQGHKGWFPKSYVKLISG [Q49H]	0.045 ± 0.22
QGEKVEGLQAQALYPWRAKKDNHLNFNKNDVITVLEQQDMWWFGEVQGCKGWFPKSYVKLISG [Q49C]	0.046 ± 0.16
QGEKVEGLQAQALYPWRAKKDNHLNFNKNDVITVLEQQDMWWFGEVQGKKGWFPKSYVKLISG [Q49K]	-0.483 ± 0.42
QGEKVEGLQAQALYPWRAKKDNHLNFNKNDVITVLEQQDMWWFGEVQGVKGWFPKSYVKLISG [Q49V]	-0.065 ± 0.098
QGEKVEGLQAQALYPWRAKKDNHLNFNKNDVITVLEQQDMWWFGEVQGGKGWFPKSYVKLISG [Q49G]	-0.005 ± 0.14
QGEKVEGLQAQALYPWRAKKDNHLNFNKNDVITVLEQQDMWWFGEVQGRKGWFPKSYVKLISG [Q49R]	-0.031 ± 0.081
QGEKVEGLQAQALYPWRAKKDNHLNFNKNDVITVLEQQDMWWFGEVQGDKGWFPKSYVKLISG [Q49D]	-0.466 ± 0.3
QGEKVEGLQAQALYPWRAKKDNHLNFNKNDVITVLEQQDMWWFGEVQGNKGWFPKSYVKLISG [Q49N]	-0.403 ± 0.38
QGEKVEGLQAQALYPWRAKKDNHLNFNKNDVITVLEQQDMWWFGEVQGSKGWFPKSYVKLISG [Q49S]	-0.232 ± 0.14
QGEKVEGLQAQALYPWRAKKDNHLNFNKNDVITVLEQQDMWWFGEVQGMKGWFPKSYVKLISG [Q49M]	-0.052 ± 0.21
QGEKVEGLQAQALYPWRAKKDNHLNFNKNDVITVLEQQDMWWFGEVQGIKGWFPKSYVKLISG [Q49I]	-0.208 ± 0.3
QGEKVEGLQAQALYPWRAKKDNHLNFNKNDVITVLEQQDMWWFGEVQGYKGWFPKSYVKLISG [Q49Y]	-0.303 ± 0.31
